Tests used:
SU-pcGBM2 cells = assay: Annexin V FACS analysis of cell death; type: cell-based; details: 50 nM NLGN3, 24 h vs PBS
Procedure: After 24-hr exposure to PBS or NLGN3 (50 nM), SU-pcGBM2 cells were stained with DAPI (X-axis) and Annexin V-FITC (Y-axis) to detect cell death by FACS analysis, performed in biological duplicate. Live Annexin V^−/DAPI^− cells shown in lower left quadrant of contour plots; pre-apoptotic Annexin V^+/DAPI^− cells, left upper quadrant; dead Annexin V^+/DAPI^+ cells, right upper quadrant.
SU-pcGBM2 cells were cultured in minimal growth media together with 50 nM NLGN-3 recombinant protein (dissolved in PBS) or PBS only as a vehicle control in duplicate for 24 hrs. Cells were harvested for FACS analyses of apoptosis using Annexin V-FITC Apoptosis Detection Kit II (556570, BD Biosciences) according to the manufacturer's instruction with slight modifications. DAPI was used in combination with Annexin V-FITC to stain the apoptotic cell population instead of PI. The stained cells were analyzed using a BD Fortessa FACS machine (BD Biosciences). The data were analyzed using Flowjo software (FLOWJO, LLC).

[1] = tested on: PI3K pathway (phospho-AKT); assay: Western blot of phospho-AKT as indicator of PI3K pathway activity; type: cell-based, human; details: recombinant NLGN3 0-50 nM, 1 hour
Procedure: (§1) A) Signaling through the PI3K pathway increases in response to NLGN3. Representative Western blot illustrating increased phosphorylation of AKT in response to various concentrations of NLGN3 ranging from 0-50 nM. p-AKT is shown in top panel; total AKT is shown in the bottom panel. B) Quantification of the increased fold change of pAKT/AKT ratio in response to NLGN3 at various doses (oneway ANOVA, F=17.99, P<001; data shown as mean±SEM; *P<0.05, **P<0.01, ***P<0.001 by Tukey's post-hoc tests to further examine pairwise comparisons). Fold change is normalized to blank media (aCSF). (C) Fos mRNA expression increases after 1 hour exposure to […] 50 nM NLGN3 (data shown as mean±SEM; **P<0.01 by unpaired two-tailed Student's t-test). D) NLGN3 mRNA expression increases after 12 hour exposure to 50 nM NLGN3 vs. vehicle in SU-[…] cells. Data shown as mean±SEM; *P<0.05 by unpaired two-tailed Student's t-test. […]
(§2) Endogenous protein levels were determined using Western blot analysis. […]
(§3) Briefly, in FIG. 5, panel A, cells were lysed after 1-hour exposure to 0 nM, 5 nM, 10 nM, or 50 nM recombinant NLGN3 (Origene Technologies, Rockville, Md.), using RIPA buffer and protease inhibitors. […] Protein concentration in the lysate was determined using a Bradford assay. […] Proteins were visualized using Clarity ECL Western Substrate (BioRad, Hercules, Calif.) and quantified using ImageJ.

[2] = tested on: MAPK pathway (phospho-ERK1/2 T202/Y204); assay: Western blot of phospho-ERK1/2 as indicator of MAPK pathway activation; type: cell-based, human; details: NLGN3 50 nM vs aCSF
Procedure: A) Western blot analysis of phosphorylated ERK1/2 (Thr202/Tyr204) and total ERK1/2 in SU-pcBGM2 cells after exposure to either aCSF or NLGN3 (50 nM). […] B) Phosphorylated ERK1/2 levels were normalized to total ERK1/2 levels. […] All experiments performed in three biological replicates and analyzed by unpaired two-way Student's t-test. Data presented as mean±SEM. **P<0.01, ***P<0.001. n.s. indicates P>0.05.
Endogenous protein levels were determined using Western blot analysis. Briefly, after various treatments, 400,000 SU-pcGBM2 cells were lysed and loaded onto SDS-PAGE gels. Proteins were separated with gel electrophoresis and transferred to a PVDF membrane. Proteins were then probed for various antibodies as described in extended experimental procedures.

[3] = tested on: NLGN3 mRNA in SU-pcGBM2 cells; assay: qPCR of NLGN3 gene expression in SU-pcGBM2 cells; type: cell-based, human; details: 50 nM recombinant NLGN3, 12 hour vs vehicle
[4] = tested on: NLGN3 mRNA in SU-DIPGXIII cells; assay: qPCR of NLGN3 gene expression in DIPG cells; type: cell-based, human; details: 50 nM recombinant NLGN3, 12 hour vs vehicle
Procedure: as §1, with “cells.” for “cells. Data shown as mean±SEM; *P<0.05 by unpaired two-tailed Student's t-test.”
After various cell treatments (described in extended experimental procedures), RNA was extracted from 500,000 SU-pcGBM2 or SU-[…] cells using TRIzol reagent. cDNA was generated using RT-PCR, and gene expression changes were further probed using quantitative PCR.
500,000 SU-pcGBM2 cells were exposed to either aCSF, 50 nM NLGN3 (Origene Technologies, Rockville), 500 nM BKM120 (SelleckChem, Houston, Tex.), 50 nM EGF (Shenandoah, Warwick, R.I.), or a combination of the above treatments. […] Differential expression was determined using the delta CT method. […]

[5] = tested on: NLGN3 protein in SU-pcGBM2 cells; assay: Western blot of NLGN3 protein expression in glioma cells; type: cell-based, human; details: 50 nM NLGN3 for 12 hours, then 24 hours recovery in fresh media
Procedure: as §1, §2, §3

B1: NLGN3: Recombinant full-length neuroligin-3 (Origene), tested as glioma mitogen (protein, listed as Mus musculus)
chain: MWLQPSLSLSPTPTVGRSLCLTLGFLSLVLRASTQAPAPTVNTHFGKLRGARVPLPSEILGPVDQYLGVPYAAPPIGEKRFLPPEPPPSWSGIRNATHFPPVCPQNIHTAVPEVMLPVWFTANLDIVATYIQEPNEDCLYLNVYVPTEDGSGAKKQGEDLADNDGDEDEDIRDSGAKPVMVYIHGGSYMEGTGNMIDGSVLASYGNVIVITLNYRVGVLGFLSTGDQAAKGNYGLLDQIQALRWVSENIAFFGGDPRRITVFGSGIGASCVSLLTLSHHSEGLFQRAIIQSGSALSSWAVNYQPVKYTSLLADKVGCNVLDTVDMVDCLRQKSAKELVEQDIQPARYHVAFGPVIDGDVIPDDPEILMEQGEFLNYDIMLGVNQGEGLKFVEGVVDPEDGVSGTDFDYSVSNFVDNLYGYPEGKDTLRETIKFMYTDWADRDNPETRRKTLVALFTDHQWVEPSVVTADLHARYGSPTYFYAFYHHCQSLMKPAWSDAAHGDEVPYVFGVPMVGPTDLFPCNFSKNDVMLSAVVMTYWTNFAKTGDPNKPVPQDTKFIHTKANRFEEVAWSKYNPRDQLYLHIGLKPRVRDHYRATKVAFWKHLVPHLYNLHDMFHYTSTTTKVPPPDTTHSSHITRRPNGKTWSTKRPAISPAYSNENAPGSWNGDQDAGPLLVENPRDYSTELSVTIAVGASLLFLNVLAFAALYYRKDKRRQEPLRQPSPQRGTGAPELGTAPEEELAALQLGPTHHECEAGPPHDTLRLTALPDYTLTLRRSPDDIPLMTPNTITMIPNSLVGLQTLHPYNTFAAGFNSTGLPHSHSTTRV
SU-pcGBM2 cells
  cell death by Annexin V FACS analysis: no change in cell death
[1]
  phospho-AKT levels relative to total AKT: increased phospho-AKT levels relative to total AKT in a dose-dependent manner
[2]
  phospho-ERK1/2 T202/Y204: did not reveal upregulation
[3]
  NLGN3 gene expression: increase in glioma cell NLGN3 gene expression
[4]
  NLGN3 gene expression: increase in glioma cell NLGN3 gene expression
[5]
  NLGN3 protein expression: Protein expression of NLGN3 following glioma cell NLGN3 exposure was confirmed
